Results taken from the supplement of paper PMC10567573.

B1: TRIM55 (parent)
chain: FQASNPYLPTRGGTTMASGGRFRC

Variants of: B1
Test: protein stability index of a GFP-peptide fusion (GPS, HEK-293T) (PSI 1-6); higher = more stable
Settings: c terminus: a fixed tail appended
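Also: lentivirally expressed fusions sorted by FACS into six bins by GFP to DsRed ratio, PSI derived from sequencing read proportions per bin multiplied by bin number.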

Protein stability index: each site, then its substitutions
L8: Q 2.22 | F 1.63 | T 2.79 | G 2.02 | Y 1.59 | K 1.14 | V 2.03 | C 3.09 | R 2.54 | A 1.81 | S 2.7 | P 1.92 | E 3.39 | N 2 | H 1.56 | I 2.79 | D 2.55 | M 1.26
N5: R 1.7 | K 1.78 | E 2.58 | Q 2.33 | W 2.49 | L 2.04 | A 2.65 | D 2.81 | V 2.1 | H 3.58 | P 2.22 | I 2.51 | S 3.55 | T 2 | C 2.6 | Y 2.14 | F 3.23 | G 1.41
A3: T 1.54 | V 2.28 | I 1.76 | Q 2.84 | K 1.69 | E 2.55 | N 2.18 | R 2.46 | F 2.69 | Y 1.95 | P 2.02 | L 1.8 | W 2.95 | S 2.27 | M 1.83 | H 1.24 | G 1.95
P9: V 2.2 | A 1.14 | D 2.24 | F 1.5 | N 1.85 | K 2.09 | E 2.17 | G 1.63 | C 2.04 | R 2.1 | I 1.89 | S 1.7 | T 1.73 | M 1.83 | W 2.09 | Q 1.72 | Y 1.88 | L 2.65 | H 1.86
G12: E 1.55 | F 2.86 | D 2.06 | A 1.63 | H 2.04 | C 2.23
R11: G 2.02 | W 2.68 | N 1.86 | L 2.15 | S 2.02 | I 2.46 | Y 2.28 | M 2.11 | A 2.05 | F 2.01 | E 2.29 | D 2 | P 2.13 | V 1.89 | T 1.65 | H 1.57 | C 2.76 | Q 1.8
Y7: I 2.83 | H 3.36 | M 2.68 | C 3.15 | Q 3.45 | A 3.52 | E 3.2 | V 3.13 | L 1.9 | R 3.25 | S 3.18 | N 3.4 | F 2.43 | T 3.27 | P 3.54 | D 3.76 | G 3.29 | K 2.91
S4: P 1.8 | Q 1.86 | F 2.57 | Y 2.12 | G 1.1 | K 1.85 | N 1.72 | T 2.81 | I 1.88 | D 1.24 | M 2.09 | R 1.44 | A 2.11 | L 1.66 | V 2.34 | C 2.64 | E 1.95
P6: Y 2.42 | S 1.65 | L 2.65 | A 1.96 | F 2.12 | V 3.02 | H 2.37 | K 3.13 | W 1.93 | G 2.06 | Q 2.48 | E 2.26 | N 2.72 | T 1.93 | C 3.1 | I 1.85 | D 2.07
T10: V 2.16 | P 2.37 | G 2.03 | Y 1.83 | S 1.97 | E 2.99 | M 3.72 | A 2.06 | D 1.61 | K 1.74 | I 1.81 | H 2.17 | Q 1.93 | L 2.4 | F 2.19 | N 2.23 | C 2.17 | W 2.81 | R 1.56
